Source: the nanobody polyreactivity screen of Harvey et al. (2022)

Assay: yeast display, Sf9 membrane polyspecificity reagent, FACS + sequencing; frameworks hold sequencing errors
In short: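 A synthetic nanobody library was expressed on Saccharomyces cerevisiae BJ5465 by galactose induction for 36–48 hours. The library was stained for 1 hour at 4 °C with 10% biotinylated, detergent-solubilized Sf9 membrane reagent and enriched with streptavidin microbeads before FACS. Low and high (top ~1%) gates were set on anti-HA fluorescence for expression and streptavidin fluorescence for reagent binding, and each polyreactivity label reflects the gate of origin.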

Sequence	polyreactivity (PSR sort gate)
QVQLVESGVGLVQAGGSLRLSCAASGSTFWLYAMGWYRQAPGKERELVASISSRGGSTYYADSVKGRFTISRDNAKNTVYLQMNSLKPEDTAVYYCAAKDIRYDDDYWGQGTQVTVSS	low polyreactivity
QVQLVESGVGLVQAGGSLRLSCAASGSTFYQYAIGWYRQAPVKERELVAAISKSGGSTYYADSVKGRFTISRDNAKNTVYLQMNSLKPEDTAVYYCATRWIKGRKMDYWGHGTQVTVSS	high polyreactivity
QVQLVESGVGLVQAGGSLRLSCAASGSTLPYYAMGWYRQAHGKERQMVAAITTSGGDTYSADSVKGRFTISRDNAKNTVYLQMNSLKPEDTAVYYCAISYSARSTVRKLFYFAYDYWGQGTQVTVSS	low polyreactivity
QVQLVESGVGLVQAGGSLRLSCAASGTTFSQYAMGGYRQAPGKERELVAAIDWSGGSTYYADSVKGRFTISRDNAKNTVYLQMNSLKPVDTAVYYCNTLRFRSFYLYGYWGQGTQVTVSS	high polyreactivity
QVQLVESGVGLVQAGGSLRLSCAATGFTFYWYTMGWYIQAPGKERELVAAISASGGRTYYADSVKGRFTISRDNAKNTVYLQMNSLKPEDTAVYYCAARFRTWGNREAGYYWGQGTQVTVSS	high polyreactivity
QVQLVESGVGLVQAGGSLRLSCAATGSILSINGMGWYIPAPGKERELVATIDGSDGSTFYADSVKGRFTISRDNAKNTVFLQMNSLNPEDTEVYYCADENFWQTKEYDYWGQGTQVTVSS	low polyreactivity
QVQLVESGVGLVQAGGSLRLSCASSGFIFDTYAMGLYRQAPGKERELVAVISSGGSTYYADSVKGRFTISRDNAKNTVYLQMNSLKPEDTAVYYCAADSGYLGIYGDEYSWGQGTQVTVSS	low polyreactivity
QVQLVESGVGLVQAGRSLRLSCAASGFTFGAYAMGWYRQAPGKERELVAAITRRGGSTYYADSVKGRFTISRDNAKNTVYLQMNSLKPEDTAVYYCAARRGRVLTKVSGYYSWGQGTQVTVSS	high polyreactivity
QVQLVESGVGLVQAGRSLRLSCAATGIIFRDNARGSNRQAPGKERELVAANSKSGGRTYYADSVKGRFTISRDNAKNTVYLQMNSLKPDDTAVYYCAKASRYWSLYYWGQGTQVTVSS	high polyreactivity
QVQLVESGVGLVQARGSLPLSCAASGFIFNTMGWYRQAPGKERELVATISWSDGSTYYADSVKGRFTISRDNAKNTVYLQMNTLKPEDTAVYYCAATTDALVGRPRYDYWGQGTQVTVSS	low polyreactivity
QVQLVESGVGLVQAVVSLRISCAASGSNFNYYAMGWYRQAPGKERELVAAISGSGATTYYADSVKGRFTISRDNAKNTVYLQMNSLKPEDTAVYYCATTRRWYIGYDYWGQGTQVTVSS	high polyreactivity
QVQLVESGVGLVQGGGSLRLTCAASGYTFPRYTKGWYRQPPGKERELVASINWSGGSTYYADSVKGRFTISRDNAKNNVYLQMNCLKPDDTAVYFCNKAYVSRYDYWGQGSQVTVSS	high polyreactivity
QVQLVESLGGLVQAGGSLRLSCAASGITFGWYAMGWYRQAPGQERELVAAISPAGSTYYADSVKGRFTISRDNAKNTVYLQMNSLKPEDTAVYYWRYSAFRFSAMGYWGHGTQVTVSS	high polyreactivity
QVQLVESLVGLDQAGGSLRLSCSASGFTIPRYAMGWSRQAHGKESELVAAITSGGSTYYADSVKGRFTISRDNAKNNVYLQMNSLKTEVTAVYFCAADGLCGSRFYSWGLGTQVTVSS	high polyreactivity
QVQLVESRGALVQAGGSLRLSCAASGSTIDAYAMGWYRQAPGKERELVAAITRSGGRTYYADSVKGRFTISRDYAKNTVFLQMNSLKPVDTAVFYCNAYCVYVRGEFWGQGTQVTVSS	high polyreactivity
QVQLVESRGALVQAGRSLRLRCAASGLIFYLYAMGWYRQAPGKARELVAAINYSGGRTYYADSVKGRFTISRDNAKNTVYLQMNSLKPEDTAVYYCAAKSAGFQYNYWGHGTQVTVSS	high polyreactivity
QVQLVESRGGLDQAGGSLRLSCAASGSTFYMYAMGWYRQAPGKERELVASITSGDGSTYYADSVKGRFTISRDNAKNTVYLQMNSLKPEDTAVYYCNAVLEGWFYQYDYWGQGTQVTVSS	low polyreactivity
QVQLVESRGGLFQAGGSLRLSCAASGFIFRDNAMGWYRQAPGKERELVAAISKSGGRTYYADSVKGRFTISRDNAKNTVYLQMNSLKPEDTAVYYCAKVRYQGNGGYYWGQGTQVTVSS	high polyreactivity
QVQLVESRGGLVQAGGSHRLSCAASGSIIYGNTMGWYRQAPGKERELVAAIRRGGSTNYADSVKGRFTISRDNAKNTVYLQMNSMKPEDTAVYYCAKGHPSDFGYWGQGTQVNVSS	high polyreactivity
QVQLVESRGGLVQAGGSIRLSCAASGRIFVTYAMGWYRQAPGKERELVAVISWSGGSTYYADSVKGRFTISRDNAKNTVYLQMNSLKPEDTAVYYCARGLRKVRFDFWGQGTQVTVSS	low polyreactivity
QVQLVESRGGLVQAGGSLLLRCAASGSTITRNAMGWYRQAPGKERELVAAITSGGGTNYADSVKGRFTISRDNAKNTVYLQMNSLKPEDTAVYYCADRYWRFYTKRGYWGQGTQVTVSS	high polyreactivity
QVQLVESRGGLVQAGGSLRLICAASGRIFGRNAMGWYRQAPGKERELVAAISKRGGSTSYADSVKGRFTISRDNAKNTVYLQMNSLKPEDTAVYYCATSAPLVTSSGYGYWGQGTQVTVSS	high polyreactivity

Sequence	polyreactivity (PSR sort gate)
QVQLVESRGGLVQAGGSLRLRCAASGSTFGYYAMGWYRQAPGKERELVAGISSGGTTKYADSVKGRFTISRDNEKNTVYLQMNSLKPEDTAVYYCAATVRVYDYWGQGTQVTLSS	high polyreactivity
QVQLVESRGGLVQAGGSLRLSCAASGFIFRYYAMGWYRQEPGKDSELVAAISWSGGSTYYADSVKGRFTISRDNAKNTVYLQMNSLKPEDTAVYYCAADRYAILFYAEDYWGQGTQVTVSS	low polyreactivity
QVQLVESRGGLVQAGGSLRLSCAASGFNFPHYAMGWYRQAPGKERELVAAISKSGDSTYYADSVKARFTISRDNAKNTVYLQMNSLKPEDTAVYYCARRGRSVRWKYDYWGQGTQVTVSS	low polyreactivity
QVQLVESRGGLVQAGGSLRLSCAASGFTFGWYAMGWYRQSPGKERELVAAITSGGSTKYADSVKGRFTISRDNAKNTVYLEMNSLKPEETAVYYCAAKRLGQYRPYTYGYWGQGTQVTVSS	high polyreactivity
QVQLVESRGGLVQAGGSLRLSCAASGFTFQRYAMGWYRQAPGKERELVAAINRSGGNTHYADSVKGRFTISRDNAKNTVYLQMNSLKPDDTAVYYCAVGTPASVGHYTYDYWGQGTQVTVSS	high polyreactivity
QVQLVESRGGLVQAGGSLRLSCAASGFTFVYYTMGWYRQAPGKERELVAAINWSGGSTYYADSVKGRFTISRDNAKNTVYLQMNSLKPEDTAVYYCAADTSYYPYEYWGQGTQVTVSS	high polyreactivity
QVQLVESRGGLVQAGGSLRLSCAASGGIFINYAMGWYRQAPGKERELVAAISRRGGSTYYADSVKGRFTISRDNAKNTVYLQMNSLKPEDTAVYYCNAVYLRGGMDYWGQGTQVTVSS	high polyreactivity
QVQLVESRGGLVQAGGSLRLSCAASGIIFSKNAMGWYRQAPGKERELVATINRSGGSTYADSVKGRFTISRDNAKNTVYLQMNSLKPEDTAVYYCAKRASPFWRGYDSCGQGTQVTVSS	high polyreactivity
QVQLVESRGGLVQAGGSLRLSCAASGIIFYQYAMGWYRQAPGKERELVAAITRSGGSTYFADSVKGRFTISRDNAKNTVYLQMKSLKPEDTAVYYCAARPFHSGYEGYGYWGQGTQVTVSS	high polyreactivity
QVQLVESRGGLVQAGGSLRLSCAASGLTFKWYAMGWYRQAHGKERELVAAISRDGSTYYADSVKGRFTISRDNAKNTVYLQMNSLKPEDTAVYYCAAEPRSRRVLYDYWGQGTQVTVSS	high polyreactivity
QVQLVESRGGLVQAGGSLRLSCAASGNTFRIYTMGWYRQAPGKDRELVATITRRGGYTYYADSVKGRFTISRDNAKNTVYLQMNSLKPEDTAVYYCNALPRPSYTFDYWGQGTQVTVSS	high polyreactivity
QVQLVESRGGLVQAGGSLRLSCAASGRINSRYAMGLSRQEPGKERELVAAISWNGGSTYYADSVKGRFTISRDNAMNTVYFQMNSLKPEDTAVYYCAAYRPGPYAAYGYWGQGTQVTVSS	high polyreactivity
QVQLVESRGGLVQAGGSLRLSCAASGRNFKANTMGWYRQAPGKERVVVAAITASGGTTYYADSVKGRFTISRDNAKNTVYLQMTSLKPEDTAVYYCAAAVWYRGWYRYEYWGQGSQVTVSS	low polyreactivity
QVQLVESRGGLVQAGGSLRLSCAASGRTFWYYAMGWYRQAPGKEMELVATITGSGGTTYYADSVKGRFTISRDNAKNTVYLQMNSLKREDTAVYYCAKEQHWYIYGPAEVDYWGQGTQVTVSS	high polyreactivity
QVQLVESRGGLVQAGGSLRLSCAASGRTIGLNAMGWYRQAPRKERELVASAITGGGDSTYYADSVKGRFTMSRDNAKNPVYLQMNSVKPEDTAVYYCAKRYSRGSQYDYWGQGTQVTVSS	high polyreactivity
QVQLVESRGGLVQAGGSLRLSCAASGSIFGANAMGWYRQEPGKEMELVAAISTRGGRTYYADSVKGRFTISRDNAKNTVYLQMISLKPEDTAVYYCATSGGRPYTYEYWGQGTQVTVSS	high polyreactivity
QVQLVESRGGLVQAGGSLRLSCAASGSIFGFYAMGWYRQAPGKERELVAAISSDGGSTYYADSVKGRFTISRDNAKNTVYLQMNSLKPEDTAVYYCAAAHGSIYDSTYYEYYYWGQGTQVTVSS	low polyreactivity
QVQLVESRGGLVQAGGSLRLSCAASGSIFGYYTMGWYRQAPGKDRELVAAISARGGRTYYADSVKGRFTISRDNAKNTVYLLMNSLKPEDTAVYYCAKRVYRRLYTGGQNPYDYWGQGTQVTVSS	high polyreactivity
QVQLVESRGGLVQAGGSLRLSCAASGSIFLYYARGWYIQAPGKERELDAAISISGGRTYYADSVKGRFTISRDNSKNTVYIQMNSLKPEDTAVYYCATKGYTGYAYRYGYWGQGTQVTVSS	high polyreactivity
QVQLVESRGGLVQAGGSLRLSCAASGSIFPVYAMGWYRQATGKERELVASISSSGGRTYYADSVKGRFTISRDNAKNTVYLQMNSLKPEDTAVYYCAAGAFHGVFWYEYWGQGTQVTVSS	high polyreactivity
QVQLVESRGGLVQAGGSLRLSCAASGSTFLNYAMGWYRQAPGKERELVAAISGSTTRTYYAESVKGRFTISRDNAKNTVYLQMNSLKPEDTAVYYCAATRGRGGRDDYWGQGSQVTVSS	high polyreactivity
